From patent publication US20030082173A1 (ST JUDE CHILDREN S RESEARCH HOSPITAL, published 2003)

Target: T1, calcium-signal modulating cyclophilin ligand (CAML), human, full length (human, UniProt P49069 1-296)
T1 construct: mature; In the co-immunoprecipitation it was expressed from pBJ5 in 293T cells
T1 sequence (looked up): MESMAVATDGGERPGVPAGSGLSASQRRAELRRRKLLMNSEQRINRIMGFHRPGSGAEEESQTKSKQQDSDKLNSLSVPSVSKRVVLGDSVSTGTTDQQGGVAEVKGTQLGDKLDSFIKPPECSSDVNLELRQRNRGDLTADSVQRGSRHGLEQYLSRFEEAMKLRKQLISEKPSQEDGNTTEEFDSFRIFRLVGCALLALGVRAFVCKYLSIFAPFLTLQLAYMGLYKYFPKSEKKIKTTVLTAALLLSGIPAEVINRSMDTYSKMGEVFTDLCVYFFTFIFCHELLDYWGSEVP
Test: yeast two-hybrid screen of a human B-lymphocyte cDNA library with full-length CAML as bait

binding result: binds
B1: Transmembrane Activator and CAML-Interactor protein TACI-1 (human, full length, 293 amino acids) (receptor)
chain: MSGLGRSRRGGRSRVDQEERFPQGLWTGVAMRSCPEEQYWDPLLGTCMSCKTICNHQSQRTCAAFCRSLSCRKEQGKFYDHLLRDCISCASICGQHPKQCAYFCENKLRSPVNLPPELRRQRSGEVENNSDNSGRYQGLEHRGSEASPALPGLKLSADQVALVYSTLGLCLCAVLCCFLVAVACFLKKRGDPCSCQPRSRPRQSPAKSSQDHAMEAGSPVSTSPEPVETCSFCFPECRAPTQESAVTPGTPDPTCAGRWGCHTRTTVLQPCPHIPDSGLGIVCVPAQEGGPGA
notes: Untagged full-length protein expressed from pBJ5 on TAg Jurkat T cells for flow cytometry and reporter assays; In the yeast two-hybrid tests it was fused to a GAL4 domain (pACT or pAS1); also called TACI protein; TCB
